Test results reported in US20170202953A1 (AGENCY FOR SCIENCE TECHNOLOGY AND RESEARCH, published 2017).

Legend:
[1] = biological target: T1, HBc18-27-HLA-A201 pentamer (PE-conjugated HLA-A2 class I pentamer bearing the HBc18-27 epitope, Proimmune) (Hepatitis B virus; human); experiment: flow cytometry, pentamer staining of transduced lymphocytes; the filing puts the difference down to expression of the Vα3 chain
T1 construct: also called HLA-A2 pentamer; HBc18-HLA-A201 pentamer

[2] = biological target: T2, HBV core antigen (HBc18-27, genotype B/C; 27I) peptide on HLA-A*02:07 (human); experiment: T cell clone or line
T2 peptide: FLPSDFFPSI

[3] = biological target: T3, HBV core antigen (HBc18-27, genotype B/C; 27I) peptide on HLA-A*02:01 (human); experiment: T cell clone or line
T3 peptide: FLPSDFFPSI

[4] = biological target: T4, HBV core antigen (HBc18-27, genotype B/C; 27I) peptide on HLA-A*02:06 (human); experiment: T cell clone or line
T4 peptide: FLPSDFFPSI

[5] = biological target: T5, HBV envelope antigen (HBs370-79, genotype C) peptide on HLA-A*02:01 (human); experiment: cytokine release
T5 peptide: NILNPFLPLL

[6] = biological target: T6, HBV envelope antigen (HBs370-79, genotype A/D) peptide on HLA-A*02:01 (human); experiment: cytokine release
T6 peptide: SIVSPFIPLL

[7] = biological target: T7, HBV envelope antigen (HBs370-79, genotype B) peptide on HLA-A*02:01 (human); experiment: cytokine release
T7 peptide: NILSPFMPLL

B1: HBc18-Opt-TCR (codon optimized HBc18-27 TCR, Vα3 / Vβ8.2) (TCR, V domains shown)
V domain 1: SQQGEEDPQALSIQEGENATMNCSYKTSINNLQWYRQNSGRGLVHLILIRSNEREKHSGRLRVTLDTSKKSSSLLITASRAADTASYFCATWLSGSARQLTFGSGTQLTVLP
V domain 2: DAGVIQSPRHEVTEMGQEVTLRCKPISGHDYLFWYRQTMMRGLELLIYFNNNVPIDDSGMPEDRFSAKMPNASFSTLKIQPSEPRDSAVYFCASSNRASSYNEQFFGPGTRLTVLE
notes: also called codon optimized TCR; HBc18-Opt-Vα3 and HBc18-Opt-Vβ8.2
B1 was tested, and the “fold frequency of pentamer positive cells against HBc18-WT-TCR” value [1] was 2 fold.

B2: HBc18-27 TCR (TCR, V domains shown)
Valpha: B1 V domain 1
Vbeta: DAGVIQSPRHEVTEMGQEVTLRCKPISGHDYLFWYRQTMMRGLELLIYFNNNVPIDDSGMPEDRFSAKMPNASFSTLKIQPSEPRDSAVYFCASSNRASSYNEQFFGPGTRLTVL
In the case of B2, the “peptide concentration still recognised” value [2] is reported as no more than 1 pM, the “peptide concentration still recognised” value [3] is reported as no more than 1 pM and the “peptide concentration still recognised” value [4] is reported as no more than 1 pM.

B3: HBs370-79 TCR (TCR, V domains shown)
Valpha: QKEVEQNSGPLSVPEGAIASLNCTYSDRGSQSFFWYRQYSGKSPELIMFIYSNGDKEDGRFTAQLNKASQYVSLLIRDSQPSDSATYLCAVNLYAGNMLTFGGGTRLMVKP
Vbeta: GAGVSQSPRYKVAKRGQDVALRCDPISGHVSLFWYQQALGQGPEFLTYFQNEAQLDKSGLPSDRFFAERPEGSVSTLKIQRTQQEDSAVYLCASSSDFGNQPQHFGDGTRLSIL
B3: recognises [5]; recognises [6]; recognises [7].
